Measurements from article PMC4543619 (British Journal of Pharmacology, 2015).
Read-outs that look alike come from different tables or passages of the source.

Legend:
[1] = target: T1, native/full length GTP cyclohydrolase 1 (F‐GCH1), His6-tagged (human, UniProt P30793 1-250); experiment: SPR
T1 sequence (looked up): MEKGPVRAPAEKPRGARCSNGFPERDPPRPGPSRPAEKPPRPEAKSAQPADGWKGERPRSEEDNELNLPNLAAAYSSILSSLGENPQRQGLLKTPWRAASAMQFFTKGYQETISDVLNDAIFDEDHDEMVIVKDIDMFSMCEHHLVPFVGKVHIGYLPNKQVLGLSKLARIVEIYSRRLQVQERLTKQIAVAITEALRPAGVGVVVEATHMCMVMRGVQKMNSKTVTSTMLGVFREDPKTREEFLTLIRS

[2] = target: T1, native/full length GTP cyclohydrolase 1 …; experiment: SPR; remark: listed apart in the source

- Kd [1]: 1 nM
- Kd [2]: 8 nM
B1: GCH1 feedback regulatory protein (GFRP), His6 tag cleaved (natural protein)
chain: not shown
